Experimental findings from IntAct's records for PubMed 21697476 are described below.

Sequences and labels used below:
B1: Replication and transcription activator (Epstein-Barr virus (strain B95-8) (HHV-4)), P03209 (parent)
chain: MRPKKDGLEDFLRLTPEIKKQLGSLVSDYCNVLNKEFTAGSVEITLRSYKICKAFINEAKAHGREWGGLMATLNICNFWAILRNNRVRRRAENAGNDACSIACPIVMRYVLDHLIVVTDRFFIQAPSNRVMIPATIGTAMYKLLKHSRVRAYTYSKVLGVDRAAIMASGKQVVEHLNRMEKEGLLSSKFKAFCKWVFTYPVLEEMFQTMVSSKTGHLTDDVKDVRALIKTLPRASYSSHAGQRSYVSGVLPACLLSTKSKAVETPILVSGADRMDEELMGNDGGASHTEARYSESGQFHAFTDELESLPSPTMPLKPGAQSADCGDSSSSSSDSGNSDTEQSEREEARAEAPRLRAPKSRRTSRPNRGQTPCPSNAAEPEQPWIAAVHQESDERPIFPHPSKPTFLPPVKRKKGLRDSREGMFLPKPEAGSAISDVFEGREVCQPKRIRPFHPPGSPWANRPLPASLAPTPTGPVHEPVGSLTPAPVPQPLDPAPAVTPEASHLLEDPDEETSQAVKALREMADTVIPQKEEAAICGQMDLSHPPPRGHLDELTTTLESMTEDLNLDSPLTPELNEILDTFLNDECLLHAMHISTGLSIFDTSLF

The variants in this assay derive from B1. As to conditions: with po2f1_human POU2F1, P14859.
po2f1_human POU2F1, P14859, sequence (P14859 whole entry): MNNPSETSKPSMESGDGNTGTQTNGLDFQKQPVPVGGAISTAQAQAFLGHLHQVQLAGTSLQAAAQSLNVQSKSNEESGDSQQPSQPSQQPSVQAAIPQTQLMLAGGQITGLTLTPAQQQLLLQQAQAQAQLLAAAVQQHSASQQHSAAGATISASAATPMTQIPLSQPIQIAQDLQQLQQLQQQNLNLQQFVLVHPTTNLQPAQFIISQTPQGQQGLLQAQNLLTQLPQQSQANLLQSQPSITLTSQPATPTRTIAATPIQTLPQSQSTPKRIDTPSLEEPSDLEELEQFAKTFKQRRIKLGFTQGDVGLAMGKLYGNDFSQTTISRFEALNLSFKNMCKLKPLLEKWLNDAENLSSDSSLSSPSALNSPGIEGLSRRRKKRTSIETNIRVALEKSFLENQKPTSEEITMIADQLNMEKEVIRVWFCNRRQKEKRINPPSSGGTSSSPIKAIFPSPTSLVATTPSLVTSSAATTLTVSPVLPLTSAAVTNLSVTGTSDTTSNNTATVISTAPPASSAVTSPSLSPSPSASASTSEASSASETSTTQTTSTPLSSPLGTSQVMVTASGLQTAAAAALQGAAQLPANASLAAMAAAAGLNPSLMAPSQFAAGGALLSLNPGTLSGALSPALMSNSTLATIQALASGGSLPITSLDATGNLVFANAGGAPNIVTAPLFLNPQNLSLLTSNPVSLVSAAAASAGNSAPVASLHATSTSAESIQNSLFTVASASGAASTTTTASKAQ
Turning to M140A, the “effect of a mutation on the interaction” value is listed as “decreasing interaction”.
